T1: DLG3_1, Q92796
T1 sequence (Q92796 125-227, limits assumed, looked up): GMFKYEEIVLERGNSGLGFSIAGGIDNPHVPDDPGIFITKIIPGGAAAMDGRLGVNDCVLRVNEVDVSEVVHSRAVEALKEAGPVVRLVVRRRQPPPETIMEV

T2: TX1BP3, O14907
T2 sequence (O14907 10-122, limits assumed, looked up): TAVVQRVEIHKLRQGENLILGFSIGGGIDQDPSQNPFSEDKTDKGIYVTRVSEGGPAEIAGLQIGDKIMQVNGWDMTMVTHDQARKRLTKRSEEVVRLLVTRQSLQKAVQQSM

T3: LNX2_2, Q8N448
T3 sequence (Q8N448 334-432, limits assumed, looked up): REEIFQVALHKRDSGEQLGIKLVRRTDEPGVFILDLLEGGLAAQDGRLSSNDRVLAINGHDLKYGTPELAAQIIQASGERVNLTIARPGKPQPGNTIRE

T4: SNTB1, Q13884
T4 sequence (Q13884 107-205, limits assumed, looked up): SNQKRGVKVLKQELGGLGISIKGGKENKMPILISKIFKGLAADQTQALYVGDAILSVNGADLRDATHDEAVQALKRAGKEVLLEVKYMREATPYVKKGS

T5: GRIP1_5, Q9Y3R0
T5 sequence (Q9Y3R0 568-668, limits assumed, looked up): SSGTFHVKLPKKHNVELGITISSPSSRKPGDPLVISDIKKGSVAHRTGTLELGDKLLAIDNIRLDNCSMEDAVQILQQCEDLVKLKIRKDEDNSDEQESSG

T6: FRMPD1, Q5SYB0
T6 sequence (Q5SYB0 52-145, limits assumed, looked up): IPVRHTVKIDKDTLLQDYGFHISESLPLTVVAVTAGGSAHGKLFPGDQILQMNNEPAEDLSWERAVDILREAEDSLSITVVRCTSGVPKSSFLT

T7: DLG3_2, Q92796
T7 sequence (Q92796 221-321, limits assumed, looked up): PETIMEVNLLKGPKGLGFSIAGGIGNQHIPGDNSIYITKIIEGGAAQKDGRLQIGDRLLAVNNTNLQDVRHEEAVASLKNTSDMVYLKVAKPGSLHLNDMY

T8: RAPGEF6, Q8TEU7
T8 sequence (Q8TEU7 525-625, limits assumed, looked up): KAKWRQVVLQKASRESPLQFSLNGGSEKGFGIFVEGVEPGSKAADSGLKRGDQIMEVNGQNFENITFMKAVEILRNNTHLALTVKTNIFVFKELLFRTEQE

T9: PARD3B_1, Q8TEW8
T9 sequence (Q8TEW8 196-299, limits assumed, looked up): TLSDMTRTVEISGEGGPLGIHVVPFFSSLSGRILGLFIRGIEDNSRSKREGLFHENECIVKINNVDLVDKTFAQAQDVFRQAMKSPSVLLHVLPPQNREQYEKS

T10: MPDZ_12, O75970
T10 sequence (O75970 1857-1958, limits assumed, looked up): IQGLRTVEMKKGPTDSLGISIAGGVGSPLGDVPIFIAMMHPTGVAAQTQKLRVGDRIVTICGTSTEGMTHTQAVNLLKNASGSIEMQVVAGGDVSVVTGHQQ


Experiments:
Test in all cases: holdup assay
Set-up in all cases: key: below the threshold = too weak to quantify, mostly under pKd 3.1 to 4
Details in all cases: plain residues with an end cap or a label only (N-terminal biotin on a linker: ado-ado)
DLG3_1, Q92796 = target: T1, DLG3_1, Q92796
TX1BP3, O14907 = target: T2, TX1BP3, O14907
PICK1, Q9NRD5 = target: PICK1, Q9NRD5
MAGI2_4, Q86UL8 = target: MAGI2_4, Q86UL8
LNX2_2, Q8N448 = target: T3, LNX2_2, Q8N448
SNTB1, Q13884 = target: T4, SNTB1, Q13884
HTRA2, O43464 = target: HTRA2, O43464
GRIP1_5, Q9Y3R0 = target: T5, GRIP1_5, Q9Y3R0
FRMPD1, Q5SYB0 = target: T6, FRMPD1, Q5SYB0
Inadl_6, Q8NI35 = target: Inadl_6, Q8NI35
Inadl_8, Q8NI35 = target: Inadl_8, Q8NI35
Inadl_3, Q8NI35 = target: Inadl_3, Q8NI35
GORASP2, Q9H8Y8 = target: GORASP2, Q9H8Y8
MAST2, Q6P0Q8 = target: MAST2, Q6P0Q8
PTPN3, P26045 = target: PTPN3, P26045
DLG3_2, Q92796 = target: T7, DLG3_2, Q92796
RAPGEF6, Q8TEU7 = target: T8, RAPGEF6, Q8TEU7
PARD3B_1, Q8TEW8 = target: T9, PARD3B_1, Q8TEW8
SCRIB_3, Q14160 = target: SCRIB_3, Q14160
DLG4_1, P78352 = target: DLG4_1, P78352
MAGI2_5, Q86UL8 = target: MAGI2_5, Q86UL8
TJP2_1, Q9UDY2 = target: TJP2_1, Q9UDY2
MAST1, Q9Y2H9 = target: MAST1, Q9Y2H9
FRMPD2_1, Q68DX3 = target: FRMPD2_1, Q68DX3
MPDZ_12, O75970 = target: T10, MPDZ_12, O75970
GOPC, Q9HD26 = target: GOPC, Q9HD26
FRMPD2_2, Q68DX3 = target: FRMPD2_2, Q68DX3
FRMPD2_2, Q68DX3, sequence (Q68DX3 944-1038): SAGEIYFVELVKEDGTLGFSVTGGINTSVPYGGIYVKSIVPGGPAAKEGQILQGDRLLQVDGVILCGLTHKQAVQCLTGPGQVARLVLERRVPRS

Inadl_8, Q8NI35, sequence (Q8NI35 1425-1530): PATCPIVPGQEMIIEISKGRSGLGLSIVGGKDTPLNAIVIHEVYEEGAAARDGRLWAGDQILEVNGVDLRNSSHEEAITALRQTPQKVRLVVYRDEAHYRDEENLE
Inadl_3, Q8NI35, sequence (Q8NI35 359-469): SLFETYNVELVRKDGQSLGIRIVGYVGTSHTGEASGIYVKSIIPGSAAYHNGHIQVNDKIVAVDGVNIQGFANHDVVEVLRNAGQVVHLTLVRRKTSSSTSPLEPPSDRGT
Inadl_6, Q8NI35, sequence (Q8NI35 1058-1167): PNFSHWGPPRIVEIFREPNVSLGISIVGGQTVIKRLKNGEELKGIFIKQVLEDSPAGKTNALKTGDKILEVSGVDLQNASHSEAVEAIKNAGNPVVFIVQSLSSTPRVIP
TJP2_1, Q9UDY2, sequence (Q9UDY2 24-128): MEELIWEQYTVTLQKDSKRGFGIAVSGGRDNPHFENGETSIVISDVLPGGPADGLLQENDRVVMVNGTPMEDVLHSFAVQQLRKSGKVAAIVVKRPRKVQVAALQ
MAST2, Q6P0Q8, sequence (Q6P0Q8 1099-1202): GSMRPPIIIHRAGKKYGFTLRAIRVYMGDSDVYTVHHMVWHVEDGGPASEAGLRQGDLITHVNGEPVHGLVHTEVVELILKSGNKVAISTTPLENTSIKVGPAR
MAGI2_4, Q86UL8, sequence (Q86UL8 772-865): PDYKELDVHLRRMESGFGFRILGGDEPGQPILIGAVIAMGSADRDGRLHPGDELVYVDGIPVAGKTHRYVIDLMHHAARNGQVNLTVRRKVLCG
FRMPD2_1, Q68DX3, sequence (Q68DX3 770-861): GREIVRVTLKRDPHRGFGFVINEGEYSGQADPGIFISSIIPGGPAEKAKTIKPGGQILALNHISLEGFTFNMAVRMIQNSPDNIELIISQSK
HTRA2, O43464, sequence (O43464 355-458): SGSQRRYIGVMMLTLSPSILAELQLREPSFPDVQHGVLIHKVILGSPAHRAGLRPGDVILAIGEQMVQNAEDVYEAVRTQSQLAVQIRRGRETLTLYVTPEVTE
SCRIB_3, Q14160, sequence (Q14160 999-1103): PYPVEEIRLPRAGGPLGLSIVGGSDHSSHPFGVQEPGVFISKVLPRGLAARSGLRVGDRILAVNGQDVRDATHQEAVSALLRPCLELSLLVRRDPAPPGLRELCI
MAGI2_5, Q86UL8, sequence (Q86UL8 915-1017): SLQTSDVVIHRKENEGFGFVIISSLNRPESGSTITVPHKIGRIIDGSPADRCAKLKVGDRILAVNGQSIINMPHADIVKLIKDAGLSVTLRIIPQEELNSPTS
DLG4_1, P78352, sequence (P78352 62-152): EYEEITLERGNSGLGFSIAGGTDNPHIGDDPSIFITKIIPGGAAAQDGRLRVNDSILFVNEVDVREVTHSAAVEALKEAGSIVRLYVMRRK
PTPN3, P26045, sequence (P26045 505-587): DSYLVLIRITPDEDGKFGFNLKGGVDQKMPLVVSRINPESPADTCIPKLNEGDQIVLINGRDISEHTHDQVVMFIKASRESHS
MAST1, Q9Y2H9, sequence (Q9Y2H9 962-1065): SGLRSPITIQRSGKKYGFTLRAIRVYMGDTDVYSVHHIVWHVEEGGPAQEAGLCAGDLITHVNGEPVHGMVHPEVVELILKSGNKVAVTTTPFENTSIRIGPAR
PICK1, Q9NRD5, sequence (Q9NRD5 17-115): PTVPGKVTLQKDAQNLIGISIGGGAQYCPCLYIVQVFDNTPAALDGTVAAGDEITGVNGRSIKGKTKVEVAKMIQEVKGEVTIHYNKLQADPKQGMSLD

Binder	pKd (DLG3_1, Q92796)	pKd (TX1BP3, O14907)	pKd (PICK1, Q9NRD5)	pKd (MAGI2_4, Q86UL8)	pKd (LNX2_2, Q8N448)	pKd (SNTB1, Q13884)	pKd (HTRA2, O43464)	pKd (GRIP1_5, Q9Y3R0)	pKd (FRMPD1, Q5SYB0)	pKd (Inadl_6, Q8NI35)	pKd (Inadl_8, Q8NI35)	pKd (Inadl_3, Q8NI35)	pKd (GORASP2, Q9H8Y8)	pKd (MAST2, Q6P0Q8)	pKd (PTPN3, P26045)	pKd (DLG3_2, Q92796)	pKd (RAPGEF6, Q8TEU7)	pKd (PARD3B_1, Q8TEW8)	pKd (SCRIB_3, Q14160)	pKd (DLG4_1, P78352)	other results
AEDEEIQTKM [UNC93A, Q86WB7]	below the threshold	below the threshold	4.11	below the threshold	below the threshold	below the threshold	below the threshold	below the threshold	below the threshold	below the threshold	below the threshold	below the threshold	below the threshold	5.38	4.17	below the threshold	below the threshold	below the threshold	below the threshold	below the threshold	pKd (MAGI2_5, Q86UL8): below the threshold; pKd (TJP2_1, Q9UDY2): below the threshold; pKd (MAST1, Q9Y2H9): 4.72; pKd (FRMPD2_1, Q68DX3): below the threshold; pKd (MPDZ_12, O75970): below the threshold; pKd (GOPC, Q9HD26): below the threshold; pKd (FRMPD2_2, Q68DX3): below the threshold
LDKESFLTWL [YAP1, P46937]	below the threshold	4.26	below the threshold	3.94	4.38	below the threshold	4.73	below the threshold	below the threshold	5.66	3.48	4.38	4.84	5.6	4.62	below the threshold	below the threshold	4.44	5.02	below the threshold	pKd (MAGI2_5, Q86UL8): 4.18; pKd (TJP2_1, Q9UDY2): 5.19; pKd (MAST1, Q9Y2H9): 4.28; pKd (FRMPD2_1, Q68DX3): below the threshold; pKd (MPDZ_12, O75970): 4.98; pKd (GOPC, Q9HD26): 3.87; pKd (FRMPD2_2, Q68DX3): 4.27
NRVDSKETEC [ADAM17, P78536]	3.77	below the threshold	4.08	3.53	3.5	4.87	below the threshold	below the threshold	below the threshold	below the threshold	below the threshold	below the threshold	below the threshold	4.86	4.98	4.67	below the threshold	below the threshold	4.58	4.32	pKd (MAGI2_5, Q86UL8): 3.92; pKd (TJP2_1, Q9UDY2): below the threshold; pKd (MAST1, Q9Y2H9): 3.88; pKd (FRMPD2_1, Q68DX3): below the threshold; pKd (MPDZ_12, O75970): below the threshold; pKd (GOPC, Q9HD26): below the threshold; pKd (FRMPD2_2, Q68DX3): below the threshold
SVISRREWYV [NECTIN3, Q9NQS3]	below the threshold	below the threshold	below the threshold	4.11	5.15	below the threshold	4.6	below the threshold	below the threshold	below the threshold	3.98	5.03	5.1	4.61	4.25	3.66	below the threshold	4.79	3.72	below the threshold	pKd (MAGI2_5, Q86UL8): below the threshold; pKd (TJP2_1, Q9UDY2): 4.63; pKd (MAST1, Q9Y2H9): 4.34; pKd (FRMPD2_1, Q68DX3): 4.51; pKd (MPDZ_12, O75970): below the threshold; pKd (GOPC, Q9HD26): below the threshold; pKd (FRMPD2_2, Q68DX3): 4.14

Source: article PMC9482650, “Quantitative fragmentomics allow affinity mapping of interactomes” (Nature Communications, 2022)
